The experiment relates to cortical stem cell clones. Nature of the experiment: Clonal growth of cortical stem cells with added soluble growth factors (without feeder cells). Type of experiment: cell-based, mouse. Conditions: factor added at 10-50 ng/ml to serum-free medium with FGF2, no feeder cells. Here is the method: Embryonic cerebral cortices and adult SVZ were dissected and dissociated as described (18-20). Single cells were plated into poly-l-lysine-coated 6-well plates (Costar) at clonal density (2000-4000 cells/well) and cultured in basal serum-free medium consisting of DMEM, B27, N2, NAC and 10 ng/ml FGF2 (19,20). To test the effects of soluble growth factors (PDGF, CNTF, TGFβ, IGF1, IL1, IL6, G-CSF, M-CSF, GM-CSF, LIF, BDNF, Steel factor, VEGF or EGF), each factor was added to serum-free medium with FGF2 at a range of 10-50 ng/ml, and clonal growth (cell number and generation of neurons and glia) was assessed (without co-cultured feeder cells). LIF and VEGF were also tested in combination, each added at 10 ng/ml into serum-free medium, with and without FGF2.

B1: CNTF: soluble growth factor (protein, UniProt P26441 1-200, looked up)
Ciliary neurotrophic factor: MAFTEHSPLTPHRRDLCSRSIWLARKIRSDLTALTESYVKHQGLNKNINLDSADGMPVASTDQWSELTEAERLQENLQAYRTFHVLLARLLEDQQVHFTPTEGDFHQAIHTLLLQVAAFAYQIEELMILLEYKIPRNEADGMPINVGDGGLFEKKLWGLKVLQELSQWTVRSIHDLRFISSHQTGIPARGSHYIANNKKM
On to B1, for which the “duplication of the effect of endothelial co-culture on clonal growth” value (from here on “duplication”) is on record as “none duplicated the result we see from endothelial co-cultures”.

B2: G-CSF: soluble growth factor (protein, UniProt P09919 31-207, looked up)
Granulocyte …: TPLGPASSLPQSFLLKCLEQVRKIQGDGAALQEKLVSECATYKLCHPEELVLLGHSLGIPWAPLSSCPSQALQLAGCLSQLHSGLFLYQGLLQALEGISPELGPTLDTLQLDVADFATTIWQQMEELGMAPALQPTQGAMPAFASAFQRRAGGVLVASHLQSFLEVSYRVLRHLAQP
Turning to B2, the “duplication” value is on record as “none duplicated the result we see from endothelial co-cultures”.

B3: M-CSF: soluble growth factor (protein, UniProt P09603 33-554, looked up)
Macrophage colony-stimulating …: EEVSEYCSHMIGSGHLQSLQRLIDSQMETSCQITFEFVDQEQLKDPVCYLKKAFLLVQDIMEDTMRFRDNTPNAIAIVQLQELSLRLKSCFTKDYEEHDKACVRTFYETPLQLLEKVKNVFNETKNLLDKDWNIFSKNCNNSFAECSSQDVVTKPDCNCLYPKAIPSSDPASVSPHQPLAPSMAPVAGLTWEDSEGTEGSSLLPGEQPLHTVDPGSAKQRPPRSTCQSFEPPETPVVKDSTIGGSPQPRPSVGAFNPGMEDILDSAMGTNWVPEEASGEASEIPVPQGTELSPSRPGGGSMQTEPARPSNFLSASSPLPASAKGQQPADVTGTALPRVGPVRPTGQDWNHTPQKTDHPSALLRDPPEPGSPRISSLRPQGLSNPSTLSAQPQLSRSHSSGSVLPLGELEGRRSTRDRRSPAEPEGGPASEGAARPLPRFNSVPLTDTGHERQSEGSFSPQLQESVFHLLVPSVILVLLAVGGLLFYRWRRRSHQEPQRADSPLEQPEGSPLTQDDRQVELPV
As for B3, the “duplication” value is on record as “none duplicated the result we see from endothelial co-cultures”.

B4: BDNF: soluble growth factor (protein, UniProt P23560 19-247, looked up)
Neurotrophic factor BDNF …: APMKEANIRGQGGLAYPGVRTHGTLESVNGPKAGSRGLTSLADTFEHVIEELLDEDQKVRPNEENNKDADLYTSRVMLSSQVPLEPPLLFLLEEYKNYLDAANMSMRVRRHSDPARRGELSVCDSISEWVTAADKKTAVDMSGGTVTVLEKVPVSKGQLKQYFYETKCNPMGYTKEGCRGIDKRHWNSQCRTTQSYVRALTMDSKKRIGWRFIRIDTSCVCTLTIKRGR
As for B4, the “duplication” value is listed as “none duplicated the result we see from endothelial co-cultures”.

The values are drawn from US7901936B2, “Method for stimulating self-renewal of neural stem cells and enhancing neurogenesis” (Albany Medical College, priority 2004, dated 2011).
